Laboratory results taken from US20240400720A1 (NOVIMMUNE S A, published 2024).
Substitutions are numbered along the chain they refer to.

How the values were obtained:
[1] = target: T1, human CD19 on Raji cells (human, UniProt P15391 20-556); experiment: FACS on Raji cells (CD19-positive), dose-response
T1 construct: whole, on cells; also called native form of hCD19
T1 sequence (looked up): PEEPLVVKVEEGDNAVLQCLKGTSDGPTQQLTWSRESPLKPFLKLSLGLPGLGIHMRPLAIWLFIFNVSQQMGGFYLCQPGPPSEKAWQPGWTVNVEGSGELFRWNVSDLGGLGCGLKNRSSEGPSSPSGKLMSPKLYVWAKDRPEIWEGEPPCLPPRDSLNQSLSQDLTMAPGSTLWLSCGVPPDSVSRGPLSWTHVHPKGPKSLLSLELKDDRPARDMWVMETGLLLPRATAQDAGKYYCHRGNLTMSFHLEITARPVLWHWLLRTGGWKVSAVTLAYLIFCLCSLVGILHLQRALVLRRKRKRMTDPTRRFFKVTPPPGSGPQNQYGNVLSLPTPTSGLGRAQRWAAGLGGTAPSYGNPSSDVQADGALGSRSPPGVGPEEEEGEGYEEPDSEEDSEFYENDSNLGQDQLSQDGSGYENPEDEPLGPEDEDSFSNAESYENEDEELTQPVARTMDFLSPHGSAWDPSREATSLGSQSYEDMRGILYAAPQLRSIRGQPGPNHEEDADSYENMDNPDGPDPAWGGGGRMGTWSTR

[2] = target: T2, human CD19 (human, UniProt P15391 20-291, limits assumed); experiment: affinity maturation of B7
T2 construct: also called hCD19
T2 sequence (looked up): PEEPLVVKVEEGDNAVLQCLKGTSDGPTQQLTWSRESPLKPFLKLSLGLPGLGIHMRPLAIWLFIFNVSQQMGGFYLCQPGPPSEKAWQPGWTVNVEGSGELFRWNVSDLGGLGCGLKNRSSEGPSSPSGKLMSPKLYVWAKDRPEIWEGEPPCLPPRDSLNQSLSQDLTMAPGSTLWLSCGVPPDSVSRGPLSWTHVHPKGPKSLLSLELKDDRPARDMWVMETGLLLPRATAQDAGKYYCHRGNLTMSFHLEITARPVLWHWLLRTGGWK

[3] = target: T3, human CD47 on the cell surface (human, UniProt Q08722 19-323); experiment: adsorption on erythrocytes: antibody in human whole blood, 30 min at 37 °C, antibody left in plasma measured by ELISA
T3 construct: whole, on cells; also called huCD47; native CD47
Method: (§1) With more than 5 billion cells per ml of blood, and 25,000 CD47 molecules per cell, erythrocytes represent potentially the major antigen sink for CD47-binding antibodies. To assess the effect of erythrocyte adsorption, CD47 antibodies were incubated with whole blood. Following incubation, the fraction of CD47 antibodies remaining in the plasma was determined by ELISA.
(§2) In brief, 200 μl of whole blood containing an anti-coagulant was mixed with 20 μl of antibody ([…] in PBS) and incubated for 30 minutes at 37° C. with shaking. The plasma was then separated from the cells by centrifugation, and the concentration of unbound antibody determined by ELISA.

[4] = target: T2, human CD19; experiment: parental antibody, weaker than D11
[5] = target: T3, human CD47 on the cell surface; experiment: FACS on DS-1 cells (CD19-negative, CD47-positive), human IgG1 format, 0.01-10 µg/ml
Method: (§3) The graphs in FIGS. 9A-9C present FACS profiles generated with monovalent and bispecific antibodies binding to CD19-negative B-NHL cells (DS-1) and CD19-positive Burkitt lymphoma cells (Raji). All antibodies were human IgG1 format and were tested at four concentrations as indicated.
(§4) Two types of cells were used, a CD19-positive Burkitt lymphoma cell line Raji (expressing about 65,000 CD47 molecules per cell) and the CD19-negative B-NHL cell line DS-1 (expressing about 150,000 CD47 molecules per cell) as a control.

[6] = target: T1, human CD19 on Raji cells; experiment: FACS on Raji cells (CD19-positive, CD47-positive), human IgG1 format, 0.01-10 µg/ml; both targets are on the cells, the filing ascribes the binding to co-engagement driven mainly by the CD19 arm
Method: as §3, §4

[7] = target: T3, human CD47 on the cell surface; experiment: CD47-SIRPα inhibition assay on Raji cells (competition with soluble SIRPα)
[8] = target: T3, human CD47 on the cell surface; experiment: adsorption on erythrocytes: antibody 10 µg/ml in human whole blood, 30 min at 37 °C, antibody left in plasma measured by ELISA
Method: as §1, §2

[9] = target: T4, human CD47 (human, UniProt Q08722 19-141, limits assumed); experiment: CD47/SIRPα binding assay, inhibition of SIRPα binding to CD47; format not stated for this figure
T4 construct: also called hCD47

[10] = target: T4, human CD47; experiment: surface plasmon resonance
[11] = target: T4, human CD47; experiment: affinity ranking told with the hemagglutination test
Method: CD47 MAbs were tested for their ability to induce homotypic clustering of erythrocytes (hemagglutination). 10 microliters of human whole blood was diluted in 40 microliters of antibody solution in PBS at different concentrations (range: 0.003 microg/ml to 50 microg/ml final Mab concentration) in flat-bottom 96 well plates. The blood-antibody mix was incubated O/N at 37° C. without shaking. At the end of the incubation, the plates were agitated manually, tilted at about […], and let to rest for about 10 minutes.

[12] = target: T3, human CD47 on the cell surface; experiment: CD47-SIRPα competitive binding assay: His-tagged soluble human SIRPα (200 ng/ml) on hCD47-transfected CHO cells, antibody 3.3 pM-330 nM; blocked ligand SIRPα
[13] = target: T5, cynomolgus monkey CD47 on CD4+ T cells (cynomolgus monkey, UniProt A0A5F8AK49 19-323 (rhesus entry)); experiment: flow cytometry on CD4+ T cells in cynomolgus PBMC
T5 construct: whole, on cells; also called cynomolgus CD47

[14] = target: T4, human CD47; experiment: screening of Examples 3 to 6
[15] = target: T4, human CD47; experiment: affinity maturation by phage display on hCD47; positive in hCD47-SIRPα inhibition screen, reformatted as IgG
[16] = target: T3, human CD47 on the cell surface; experiment: flow cytometry, CHO cells stably transfected with human CD47, antibody 10 µg/ml, Cy-5 anti-human Fc; non-transfected CHO cells as control
Method: Non-transfected CHO cells were used as control. In brief, purified CD47 Mabs were incubated with CHO-huCD47 cells at a final concentration of 10 μg/ml for 30 minutes. After two washes, bound CD47 antibodies were detected using a Cy-5 conjugated anti-human Fc secondary antibody (BD biosciences).

B1: D11 antibody (antibody, human IgG1, lambda, V domains shown)
VH: not shown
VL: NFMLTQPHSVSESPGKTVTISCTRSSGSIDDKFVQWYQQRPGSSPTTVIYYDNIRPSGVPDRFSGSIDSSSNSASLTISGLKTEDEADYYCQSYDASLYGWVFGGGTKLTVLG
notes: anti-CD19, IgG, lambda; also called L7B7_D11
Q: Does B1 bind [1]?
A: Result: binds

Q: Does B1 bind [2]?
A: Result: binds

B2: C2 antibody (antibody, human IgG1, lambda, V domains shown)
VH: not shown
VL: B1 VL with D30E, F33Y, T47I, I54E, S93T, A96Q
notes: anti-CD19, IgG, lambda; also called L7B7_C2; L7B7_c2
Q: How did the “EC50 (read off the curve)” value [1] turn out when B2 was run?
A: The value was about 0.4 nM.

Q: Does B2 bind [3]?
A: Result: no binding (tested: 10 µg/ml)

B3: B7 antibody (antibody, human IgG1, lambda, V domains shown)
VH: not shown
VL: B1 VL with D30A, F33Y, Y51E, I54Q, A96S
notes: anti-CD19, IgG, lambda (IGLV6-57); parental clone; also called 1B7
Q: Does B3 bind [1]?
A: Result: binds

Q: Does B3 bind [4]?
A: Result: binds

B4: 5A3M5xC2 (bispecific antibody, human IgG1, kappa, lambda)
common heavy chain: not shown
kappa light chain (5A3-M5, anti-CD47): not shown
lambda light chain (C2, anti-CD19): NFMLTQPHSVSESPGKTVTISCTRSSGSIEDKYVQWYQQRPGSSPTIVIYYDNERPSGVPDRFSGSIDSSSNSASLTISGLKTEDEADYYCQTYDQSLYGWVFGGGTKLTVLGQPKAAPSVTLFPPSSEELQANKATLVCLISDFYPGAVTVAWKADSSPVKAGVETTTPSKQSNNKYAASSYLSLTPEQWKSHRSYSCQVTHEGSTVEKTVAPTECS
notes: also called CD47xCD19 BsAb 5A3M5xC2; bispecific antibody 5A3-M5×C2
Q: Does B4 bind [5]?
A: Result: binds

Q: Does B4 bind [6]?
A: Result: binds

B5: CD47xCD19 bispecific antibody with CD47 arm Ke8G11 (bispecific antibody)
heavy: not shown
light 1: DIQMTQSPSSLSASVGDRVTITCRASQSIGRYLNWYQQKPGKAPKLLIYAASSLQSGVPSRFSGSGSGTDFTLTISSLQPEDFATYYCQQMHPRGPKTFGQGTKVEIKRTVAAPSVFIFPPSDEQLKSGTASVVCLLNNFYPREAKVQWKVDNALQSGNSQESVTEQDSKDSTYSLSSTLTLSKADYEKHKVYACEVTHQGLSSPVTKSFNRGEC
light 2: B4 lambda light chain (C2, anti-CD19)
notes: also called Ke8G11 CD47Xcd19 BsAb; κλ body
Q: Which IC50 [7] does the source give for B5 here?
A: The IC50 was 0.066 nM.

B6: Ka3xC2 (bispecific antibody, human IgG1, kappa, lambda)
common heavy chain: not shown
kappa light chain (Ka3, anti-CD47): not shown
lambda light chain (C2, anti-CD19): B4 lambda light chain (C2, anti-CD19)
notes: m75 has the same CD47 arm but no named CD19 arm; also called CD47xCD19 BsAb Ka3xC2; bispecific antibody Ka3×C2
Q: What does the source list for B6?
A: binding result [5]: binds; binding result [6]: binds

B7: 5A3M3xC2 (bispecific antibody, human IgG1, kappa, lambda)
common heavy chain: not shown
kappa light chain (5A3-M3, anti-CD47): not shown
lambda light chain (C2, anti-CD19): B4 lambda light chain (C2, anti-CD19)
notes: m69 has the same CD47 arm but no named CD19 arm; also called bispecific antibody 5A3-M3×C2
Q: Does B7 bind [8]?
A: Result: binds

B8: 5A3 antibody (antibody, human IgG1, kappa, V domains shown)
VH: not shown
VL: DIQMTQSPSSLSASVGDRVTITCQASQDINKYLNWYQQKPGKAPKLLIYGASRLETGVPSRFSGSGSGTDFTFTISSLQPEDIATYYCQQKHPRGPRTFGQGTKVEIKR
notes: IgG, common heavy chain, kappa light chain
Q: Which results are given for B8?
A: IC50 (read off the curve) [9]: ~0.08 nM; Kd [10]: ~23.6 nM

B9: Ke8A3 antibody (antibody, human IgG1, kappa, V domains shown)
VH: not shown
VL: DIQMTQSPSSLSASVGDRVTITCRVSQSISKYLNWYQQKPGKAPKLLIYAASSLQSGVPSRFSGSGSGTDFTLTISSLQPEDFATYYCQQRHPRGPSTFGQGTKVEIKR
notes: IgG
Q: What does the source list for B9?
A: binding result [11]: binds; binding result [12]: binds

B10: Ke8 antibody (antibody, human IgG1, kappa, V domains shown)
VH: not shown
VL: B9 VL with V25A, K31S, R91F, P93K, G95R, S97Q
notes: IgG, kappa (IGVK1-39)
Q: Does B10 bind [13]?
A: Result: no binding (tested: 0.005 mg/ml)

Q: Does B10 bind [14]?
A: Result: binds

Q: Does B10 bind [12]?
A: Result: binds

B11: 5A3-M5 antibody (antibody, human IgG1, kappa, V domains shown)
VH: not shown
VL: B8 VL with G95Y
notes: IgG, variant of 5A3 with changed VL
Q: What does the source list for B11?
A: IC50 (read off the curve) [9]: ~3 nM; Kd [10]: ~2840 nM

B12: Ke8A2 antibody (antibody, human IgG1, kappa, V domains shown)
VH: not shown
VL: B9 VL with V25A, S30D, K31R, R91K, S97R
notes: IgG; also called KE8-P2A2; KE8A25
Q: Does B12 bind [15]?
A: Result: binds

Q: Does B12 bind [16]?
A: Result: binds
